# Patent US20230002496A1 (STAIDSON BEIJING BIOPHARMACEUTICALS, published 2023)
# T1: human GM-CSFRα, full length on cells (human, UniProt P15509 23-400)
# T1 sequence: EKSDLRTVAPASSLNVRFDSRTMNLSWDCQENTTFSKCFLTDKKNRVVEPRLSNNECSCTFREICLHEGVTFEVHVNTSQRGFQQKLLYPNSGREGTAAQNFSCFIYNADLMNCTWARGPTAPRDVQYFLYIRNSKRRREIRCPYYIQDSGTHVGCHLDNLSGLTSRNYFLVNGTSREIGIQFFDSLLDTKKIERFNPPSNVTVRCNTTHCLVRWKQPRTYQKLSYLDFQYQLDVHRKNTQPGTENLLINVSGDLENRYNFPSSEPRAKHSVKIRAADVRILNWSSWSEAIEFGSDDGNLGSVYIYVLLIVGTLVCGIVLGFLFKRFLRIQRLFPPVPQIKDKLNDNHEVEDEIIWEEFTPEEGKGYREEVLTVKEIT
# Target: T1, human GM-CSFRα, full length on cells
# Assay: cell-based or functional assay
row,Binder,"IC50, TF-1 cell proliferation [µg/mL]"
1,"E35-scFv LA51E (scFv, V domains shown) VH: QMQLVQSGAEVKKPGASVKVSCKVSGYTLTELSIHWVRQAPGKGLEWMGGFDPEDGETIYAQKFQGRVTMTGDTSTDTAYLELSSLRSEDTALYYCATGRYTSLATTYGFDYWGQGTLVTVSS VL: EIVMTQSPATLSLSPGERATLSCRASQSVSSYLAWYQQKPGQAPRLLIYGESSRATGIPDRFSGSGSGTDFTLTISRLEPEDFAVYYCQQYDNWPYTFGQGTKLEIK",0.81
2,"E35-scFv LG50V (scFv, V domains shown) VH: QMQLVQSGAEVKKPGASVKVSCKVSGYTLTELSIHWVRQAPGKGLEWMGGFDPEDGETIYAQKFQGRVTMTGDTSTDTAYLELSSLRSEDTALYYCATGRYTSLATTYGFDYWGQGTLVTVSS VL: EIVMTQSPATLSLSPGERATLSCRASQSVSSYLAWYQQKPGQAPRLLIYVASSRATGIPDRFSGSGSGTDFTLTISRLEPEDFAVYYCQQYDNWPYTFGQGTKLEIK",1.4
3,"E35-scFv LG50I (scFv, V domains shown) VH: QMQLVQSGAEVKKPGASVKVSCKVSGYTLTELSIHWVRQAPGKGLEWMGGFDPEDGETIYAQKFQGRVTMTGDTSTDTAYLELSSLRSEDTALYYCATGRYTSLATTYGFDYWGQGTLVTVSS VL: EIVMTQSPATLSLSPGERATLSCRASQSVSSYLAWYQQKPGQAPRLLIYIASSRATGIPDRFSGSGSGTDFTLTISRLEPEDFAVYYCQQYDNWPYTFGQGTKLEIK",1.08
4,"E35-scFv LG50T (scFv, V domains shown) VH: QMQLVQSGAEVKKPGASVKVSCKVSGYTLTELSIHWVRQAPGKGLEWMGGFDPEDGETIYAQKFQGRVTMTGDTSTDTAYLELSSLRSEDTALYYCATGRYTSLATTYGFDYWGQGTLVTVSS VL: EIVMTQSPATLSLSPGERATLSCRASQSVSSYLAWYQQKPGQAPRLLIYTASSRATGIPDRFSGSGSGTDFTLTISRLEPEDFAVYYCQQYDNWPYTFGQGTKLEIK",0.25
5,"E35-scFv LG50Q (scFv, V domains shown) VH: QMQLVQSGAEVKKPGASVKVSCKVSGYTLTELSIHWVRQAPGKGLEWMGGFDPEDGETIYAQKFQGRVTMTGDTSTDTAYLELSSLRSEDTALYYCATGRYTSLATTYGFDYWGQGTLVTVSS VL: EIVMTQSPATLSLSPGERATLSCRASQSVSSYLAWYQQKPGQAPRLLIYQASSRATGIPDRFSGSGSGTDFTLTISRLEPEDFAVYYCQQYDNWPYTFGQGTKLEIK",0.93
6,"E35-scFv LG50S (scFv, V domains shown) VH: QMQLVQSGAEVKKPGASVKVSCKVSGYTLTELSIHWVRQAPGKGLEWMGGFDPEDGETIYAQKFQGRVTMTGDTSTDTAYLELSSLRSEDTALYYCATGRYTSLATTYGFDYWGQGTLVTVSS VL: EIVMTQSPATLSLSPGERATLSCRASQSVSSYLAWYQQKPGQAPRLLIYSASSRATGIPDRFSGSGSGTDFTLTISRLEPEDFAVYYCQQYDNWPYTFGQGTKLEIK",1.3
7,"E35-scFv LG50N (scFv, V domains shown) VH: QMQLVQSGAEVKKPGASVKVSCKVSGYTLTELSIHWVRQAPGKGLEWMGGFDPEDGETIYAQKFQGRVTMTGDTSTDTAYLELSSLRSEDTALYYCATGRYTSLATTYGFDYWGQGTLVTVSS VL: EIVMTQSPATLSLSPGERATLSCRASQSVSSYLAWYQQKPGQAPRLLIYNASSRATGIPDRFSGSGSGTDFTLTISRLEPEDFAVYYCQQYDNWPYTFGQGTKLEIK",1.59
8,"E35-scFv LG50A (scFv, V domains shown) VH: QMQLVQSGAEVKKPGASVKVSCKVSGYTLTELSIHWVRQAPGKGLEWMGGFDPEDGETIYAQKFQGRVTMTGDTSTDTAYLELSSLRSEDTALYYCATGRYTSLATTYGFDYWGQGTLVTVSS VL: EIVMTQSPATLSLSPGERATLSCRASQSVSSYLAWYQQKPGQAPRLLIYAASSRATGIPDRFSGSGSGTDFTLTISRLEPEDFAVYYCQQYDNWPYTFGQGTKLEIK",0.5
9,"E35-scFv LG50D (scFv, V domains shown) VH: QMQLVQSGAEVKKPGASVKVSCKVSGYTLTELSIHWVRQAPGKGLEWMGGFDPEDGETIYAQKFQGRVTMTGDTSTDTAYLELSSLRSEDTALYYCATGRYTSLATTYGFDYWGQGTLVTVSS VL: EIVMTQSPATLSLSPGERATLSCRASQSVSSYLAWYQQKPGQAPRLLIYDASSRATGIPDRFSGSGSGTDFTLTISRLEPEDFAVYYCQQYDNWPYTFGQGTKLEIK",0.88
10,"E35-scFv LG50L (scFv, V domains shown) VH: QMQLVQSGAEVKKPGASVKVSCKVSGYTLTELSIHWVRQAPGKGLEWMGGFDPEDGETIYAQKFQGRVTMTGDTSTDTAYLELSSLRSEDTALYYCATGRYTSLATTYGFDYWGQGTLVTVSS VL: EIVMTQSPATLSLSPGERATLSCRASQSVSSYLAWYQQKPGQAPRLLIYLASSRATGIPDRFSGSGSGTDFTLTISRLEPEDFAVYYCQQYDNWPYTFGQGTKLEIK",3.9
11,"E35-scFv LA51W (scFv, V domains shown) VH: QMQLVQSGAEVKKPGASVKVSCKVSGYTLTELSIHWVRQAPGKGLEWMGGFDPEDGETIYAQKFQGRVTMTGDTSTDTAYLELSSLRSEDTALYYCATGRYTSLATTYGFDYWGQGTLVTVSS VL: EIVMTQSPATLSLSPGERATLSCRASQSVSSYLAWYQQKPGQAPRLLIYGWSSRATGIPDRFSGSGSGTDFTLTISRLEPEDFAVYYCQQYDNWPYTFGQGTKLEIK",1.59
12,"E35-scFv LG50P (scFv, V domains shown) VH: QMQLVQSGAEVKKPGASVKVSCKVSGYTLTELSIHWVRQAPGKGLEWMGGFDPEDGETIYAQKFQGRVTMTGDTSTDTAYLELSSLRSEDTALYYCATGRYTSLATTYGFDYWGQGTLVTVSS VL: EIVMTQSPATLSLSPGERATLSCRASQSVSSYLAWYQQKPGQAPRLLIYPASSRATGIPDRFSGSGSGTDFTLTISRLEPEDFAVYYCQQYDNWPYTFGQGTKLEIK",1.86
13,"E35-scFv LA51P (scFv, V domains shown) VH: QMQLVQSGAEVKKPGASVKVSCKVSGYTLTELSIHWVRQAPGKGLEWMGGFDPEDGETIYAQKFQGRVTMTGDTSTDTAYLELSSLRSEDTALYYCATGRYTSLATTYGFDYWGQGTLVTVSS VL: EIVMTQSPATLSLSPGERATLSCRASQSVSSYLAWYQQKPGQAPRLLIYGPSSRATGIPDRFSGSGSGTDFTLTISRLEPEDFAVYYCQQYDNWPYTFGQGTKLEIK",2.1
14,"E35-scFv LA51Q (scFv, V domains shown) VH: QMQLVQSGAEVKKPGASVKVSCKVSGYTLTELSIHWVRQAPGKGLEWMGGFDPEDGETIYAQKFQGRVTMTGDTSTDTAYLELSSLRSEDTALYYCATGRYTSLATTYGFDYWGQGTLVTVSS VL: EIVMTQSPATLSLSPGERATLSCRASQSVSSYLAWYQQKPGQAPRLLIYGQSSRATGIPDRFSGSGSGTDFTLTISRLEPEDFAVYYCQQYDNWPYTFGQGTKLEIK",18.2
15,"E35-scFv LG50R (scFv, V domains shown) VH: QMQLVQSGAEVKKPGASVKVSCKVSGYTLTELSIHWVRQAPGKGLEWMGGFDPEDGETIYAQKFQGRVTMTGDTSTDTAYLELSSLRSEDTALYYCATGRYTSLATTYGFDYWGQGTLVTVSS VL: EIVMTQSPATLSLSPGERATLSCRASQSVSSYLAWYQQKPGQAPRLLIYRASSRATGIPDRFSGSGSGTDFTLTISRLEPEDFAVYYCQQYDNWPYTFGQGTKLEIK",2.79
